# T1: human MR LBD (residues 727-984) containing a C808S mutation, 6xHis-GST fusion protein (human), P08235
# T1 chain: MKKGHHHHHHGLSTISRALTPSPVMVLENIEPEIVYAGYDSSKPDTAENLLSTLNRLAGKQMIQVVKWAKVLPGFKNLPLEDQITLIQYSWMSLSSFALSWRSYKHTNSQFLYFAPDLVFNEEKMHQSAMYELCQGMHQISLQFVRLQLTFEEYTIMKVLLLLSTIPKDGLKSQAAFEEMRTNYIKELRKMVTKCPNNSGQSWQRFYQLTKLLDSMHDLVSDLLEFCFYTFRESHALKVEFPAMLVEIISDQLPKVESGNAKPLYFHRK
# Target: T1, human MR LBD (residues 727-984) …
# Assay: AlphaScreen peptide competition; corticosterone
# Settings: modification not given
row,Binder,IC50
1,TERHKILHRLLQESS [SRC1-2],1.4 µM
2,SKDHQLLRYLLDKDE [SRC1-3],1.6 µM
3,KEKHKILHRLLQDSS [SRC2-2],2.2 µM

# Continued, values first:
row,IC50,Binder
1,4.6 µM,QEKHRILHKLLQNGN [SRC3-2]
2,1.4 µM,KENNALLRYLLDRDD [SRC3-3]
